Values joined by “and” are separate entries in the source; they are usually repeats but may differ in a detail not shown here. Identical values can stand only once.

This is an account of results in patent publication US20220356229A1.

Conditions in all cases: remark: other sources report otherwise
The target in assay [1] is SARS-CoV-2 Spike protein, wild type, full length (SARS-CoV-2), P0DTC2.
In assay [2] the target is T1, SARS-CoV-2 Spike (S) protein, wild type, full length (SARS-CoV-2), P0DTC2.
For assay [3], the target named is SARS-CoV-2 Spike (S) protein, wild type, full length, expressed on the surface of transiently transfected CHO cells (SARS-CoV-2), P0DTC2.
For assay [4], the target named is SARS-CoV-2 Spike (S) protein, wild type (SARS-CoV-2), P0DTC2. As to the kind of experiment: HT-SPR Carterra LSA; mAb coupled to chip, Spike in solution; 1:1 Langmuir fit.
The target in assay [5] is T1, SARS-CoV-2 Spike (S) protein, wild …. This is another data set of the same source.

B1: antibody 464 (antibody, V domains shown)
VH: QVQLVQSGAEVKKPGASVKVSCKVSGYTLTELSMHWVRQAPGKGLEWMGGFDPEDGETIYAQKFQGRVTMTEDTSTDTAYMELSSLRSEDTAVYYCATARAFGVANWFDPWGQGTLVTVSS
VL: QSVLTQPPSASGTPGQRVTISCSGSSSNIGSNYVYWYQQLPGTAPKLLIYRNNQRPSGVPDRFSGSKSGTSASLAISGLRSEDEADYYCAAWDDSLSGLYVFGTGTKVTVL
As to B1, in assay [1], the binding signal, fold over isotype control (fold over isotype) was 1.27 and 0.99 and 1.04.

B2: antibody 267 (antibody, V domains shown)
VH: EVHLVQSGAEMKKPGATVKISCKVSGNTFIDHYIQWVQQAPGKGFEWMGLVDPEDGETIYAEKFQGRVTITADTSRDTAYMELSSLKSEDTAVYYCGTHGDYLDYWGQGTLVTVSS
VL: FYELTQPSSVSVSPGQTALITCSGDVVAKKYARWFQQKAGQAPVLVIYKDTERPSGIPERISGSSSGTTVTLTISGAQVEDEADYYCYSATDNNLVFGGGTKVTVL
With B2, the bead binding signal (fold over isotype) (fold over isotype) in assay [2] was 312.

B3: Antibody 389 (antibody, V domains shown)
VH: QVQLVESGGGVVQPGRSLRLSCAASGFTFSSYAMHWVRQAPGKGLEWVAVISYDGSNKYYADSVKGRFTISRDNSKNTLYLQMNSLRAEDTAVYYCASQGRMYVRGVDYGVYWGQGTLVTVSS
VL: NFMLTQPHSVSESPGKTVTISCTGSSGSIASNYVQWYQQRPGSAPTTVIYEDNQRPSGVPDRFSGSIDSSSNSASLTISGLKTEDEADYYCQSYDSSKISHAVFGGGTQLTVL
Regarding B3, in assay [3], the MFI fold over isotype control (fold over isotype) worked out at 0.72.

B4: Antibody 390 (antibody, V domains shown)
VH: EVQLVESGGGLIQPGGSLRLSCAASGFTVSSNYMSWVRQAPGKGLEWVSIIYSGGSTYYADSVKGRFTISRDNSKNTLYLQMNSLRAEDSAVYSCATTMVRGLIISYYYGMDVWGQGTTVTVSS
VL: QSALTQPASVSGSPGQSITISCTGTSSDVGGYNYVSWYQQHPGKAPKLMIYEVSNRPSGVSNRFSGSKSGNTASLTISGLQAEDEADYYCSSYTSSSTLVFGGGTKLTVL
As to B4, the MFI fold over isotype control (fold over isotype) in assay [3] was 0.73.

B5: anti-SARS-CoV-2 antibody 493 (antibody, V domains shown)
VH: EVQLVESGGGLIQPGRSLRLSCAASGFTVSITYMSWVRQAPGKGLEWVSLIYSGGSSYYADSVKGRFTISRDNSKNTLYLQMNSLRAEDTAVYYCATTMVRGVIISYYYGMDVWGQGTTVTVSS
VL: QSALTQPASVSGSPGQSITISCTGTSSDVGGYNYVSWYQQHPGKAPKLMIYEVSNRPSGVSNRFSGSKSGNTASLTISGLQAEDEADYYCSSYTSSSTLVFGGGTKLTVL
As for B5, the kon (commonly the rate constant with which the complex forms) in assay [4] stood at 75000 M⁻¹ s⁻¹.

B6: Antibody 413 (antibody, V domains shown)
VH: EVQLVESGGGLIQPGGSLRLSCAASGFTVSGNYMNWVRQAPGKGLEWVSVIYSGGSTYYADSVKGRFTISRANSKNTLYLQMNSLRAEDTAVYYCASTSLVRGLIILYYYGMDVWGQGTTVTVSS
VL: QSALTQPASVSGSPGQSITISCTGTSSDVGGYNYVSWYQQHPGKAPKLMIYEVSNRPSGVSNRFSGSKSGNTASLTISGLQAEDEADYYCSSYTSSSTLVFGGGTKLTVL
For the molecule B6, the MFI fold over isotype control (fold over isotype) in assay [3] was 1.11.

B7: antibody 269 (antibody, V domains shown)
VH: QLQLQESGPGLVKPSETLSLTCTVSGGSISSSSYYWGWIRQPPGKGLEWIGNIYYSGSTYYNPSLKSRVTISVDTSKNQFSLKLSSVTAADTAVYYCAGEELDIVATIYSSRYYYYGMDVWGQGTTVTVSS
VL: QSALTQPASVSGSPGQSITISCTGTSSDVGGYNYVSWYQQHPGKAPKLMIYEVSNRPSGVSNRFSGSKSGNTASLTISGLQAEDEADYYCSSYTSTSTLVFGGGTKLTVL
For B7, the bead binding signal (fold over isotype) (fold over isotype) in assay [2] is 480 and 191 and 188.

B8: antibody 270 (antibody, V domains shown)
VH: QVQLVQSGAEVKRPGTSVKVSCKTSGYTFTDHFIHWVRQAPGRRLEWMGWINPNSGGTNYAQNFQGRVTMTRDTSITTAYMDLTRLTSDDTAIYYCAREAAYGSGNLNWFDPWGQGTRVTVSS
VL: NFMLTQPHSVSESPGKTVTISCTGSSGSIAANYVHWYQQRPGSAPRTVIYEDNQRPSGVPDRFSGSIDSSSNSASLTISGLKTEDEADYYCQSYDGDSWVFGGGTKLTVL
B8: the bead binding signal (fold over isotype) (fold over isotype) in assay [2] worked out at 305.

B9: antibody 485 (antibody, V domains shown)
VH: QVQLQESGPGLVKPSGTLSLTCAVSGASISSSNWWSWVRQPPGKGLEWIGEIYHSGSTNYNPSLKSRVTISVDKSKNQFSLKLSSVTAADTAVYYCARRSYYGSGSYYPFDYWGQGTLVTVSS
VL: QSALTQPASVSGSPGQSITISCTGTSSDVGSYNLVSWYQQHPGKAPKLMIYEGRKRPSGVSNRFSGSKSGNTASLTISGLQAEDEADYYCCSYAGSSTYVFGTGTKVTVL
Take B9: the binding signal, fold over isotype control (fold over isotype) in assay [1] is 510.

B10: antibody 499 (antibody, V domains shown)
VH: EVQLVESGGGLVKPGGSLRLSCAASGFTFSSYSMNWVRQAPGKGLEWVSSISSSSSYIYYADSVKGRFTISRDNAKNSLYLQMNSLRAEDTAVYYCARAPAGIVVGPDYWGQGTLVTVSS
VL: NFMLTQPHSVSESPGKTVTISCTGSSGSIASNYVQWYQQRPGSAPTTVIFEDNQRPSGVPDRFSGSIDSSSNSASLTISGLKTEDEADYYCQSYHSSNPHVVFGGGTKLTVL
Take B10: in assay [5], the median fluorescence, fold over isotype control (fold over isotype) was determined as 0.9. The binding signal, fold over isotype control (fold over isotype) in assay [1] was 1120 and 386 and 432.

B11: antibody 495 (antibody, V domains shown)
VH: QITLKESGPTLVKPTQTLTLTCTFSGFSLSTSGVGVGWIRQPPGKALEWLALIYWDDDKRYSPSLKSRLTITKDTSKNQVVLIMTNMDPVDTATYYCAHRDSSSWFDLDAFDIWGQGTMVIVSS
VL: QSVLTQPPSVSEAPRQRVTISCSGSSSNIGNNAVNWYQQLPGKAPKLLIYYDDLLPSGVSDRFSGSKSGTSASLAISGLQSEDEADYYCAAWDDRLNGPVFGGGTKLTVL
B11: in assay [5], the median fluorescence, fold over isotype control (fold over isotype) came to 0.83. In assay [1], the binding signal, fold over isotype control (fold over isotype) is 1090 and 384 and 530.
